According to patent publication US20120100132A1 (INDUSTRIAL TECHNOLOGY RESEARCH INSTITUTE, published 2012):

Molecular target: T1, uncleavable form of transmembrane TNF-α (deletion mutant, amino acids +1 through +12 deleted) expressed on … (UniProt P01375 1-233)
T1 construct: whole, on cells; The deletion of +1 to +12 cannot be written as substitutions, so it is described under detail; also called deletion mutant transmembrane TNF-α resistant to TACE-mediated cleavage
Experiment: flow cytometry saturation binding on transmembrane TNF-α-transfected NS0 cells
Protocol: Transmembrane TNF-α-transfected NS0 cells were incubated with serial log dilutions of m357-IgG (∘) or h357-IgG antibodies for 1 hr at 4° C. The cells were washed and incubated with Alexa Fluor 488 goat anti-mouse IgG (H+L) for m357-IgG and Alexa Fluor 647 goat anti-human IgG (H+L) for h357-IgG, respectively for 1 hr at 4° C. The cell were then washed and analyzed by a FACSCalibur flow cytometer; and
Transmembrane TNF-α transfected NS0 cells were incubated with serial log dilutions of m357 IgG and h357 IgG for 1 hour at 4° C. in phosphate buffered saline (PBS) containing 2% of a fetal bovine serum (fluorescence-activated cell sorting [FACS] buffer). Cells were washed with a FACS buffer 3 times and were then stained with an Alexa Fluor 488 goat anti-mouse IgG (H+L) for m357 IgG and an Alexa Fluor 647 goat anti-human IgG (H+L) for h357 IgG, respectively for 1 hour at 4° C. Fluorescence intensities were measured using a FACSCalibur flow cytometer (Becton Dickinson, San Jose, Calif.).
TNF-α exists as a membrane associated precursor (transmembrane TNF-α) from which a mature soluble form is released by proteolytic cleavage mediated by the TNF-α converting enzyme (TACE). […]

B1: m357 IgG (murine anti-human TNF-α monoclonal antibody from hybridoma 357-104-4, ECACC No. 92030603) (antibody, V domains shown)
VH: VKLQESGGGWVQPGGSMKLSCIASGFTFSNYWMNWVRQSPEKGLEWVAEVRLQSDNFTTHYAESVKGRFTISRDDSKSGVYLQMNNLGAEDTGIYYCTPFAYWGQGTTVTVSS
VL: EIVLTQSPPITSASPGEKVTMTCSASSSVSFMYWYQQKPGSSPRLLIYDASILASGVPVRFSGSGSGTSYSLTISRMEAEDVATYYCQQWSDYSPRTFGGGTKLEIK
notes: Whole murine IgG; also called m35-IgG
Question: For B1, which Kd is on record?
Answer: 12 nM
